From the supplement of paper PMC10126150
± gives the standard deviation of the averaged measurements.

Test system: ATP
Test: switch fluorescence ratio, 500 uM ATP over buffer (Cy3 cluster intensity, sum of 5 cycles each) (fold (ratio)); higher = stronger signal-on switching upon ATP binding; sequences stand for … in TCGTCGGCAGCGTCAGATGTGTATAAGAGACAGTTTTTTTTTTTTTTTTTTTTTTTTT…TC
Conditions: aptamer strand: ATP DNA aptamer (quencher-CACCTGGGGGAGTATTGCGGAGGAAGG + anchor), 100 nM annealed; ATP concentration: 500 uM
Procedure, shortened: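 Cy3-labelled switching-strand clusters on a modified Illumina MiSeq flow-cell were annealed to 100 nM quencher-labelled ATP aptamer, imaged in selection buffer, then imaged after 15 min with 500 uM ATP at 22 °C. Five buffer/ATP cycles ran, with NaOH stripping and re-annealing between them. The fluorescence ratio is summed target-cycle over summed buffer-cycle Cy3 intensity per cluster, averaged per switch-domain sequence. Clusters outside 100-1000 RFU were excluded.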
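Also: ATP exposure 15 min at 22 °C before imaging.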

Sequence | switch fluorescence ratio
GAGGGGGTTG | 1.01 ± 0.048
GAGGGGTCCT | 1.24 ± 0.39
GAGGGGTGAC | 0.979 ± 0.021
GAGGGGTGGT | 0.987 ± 0.029
GAGGGGTTTT | 1.01 ± 0.04
GAGGGTAGCG | 0.96 ± 0.059
GAGGGTATAG | 1.02 ± 0.085
GAGGGTTGGG | 1.06 ± 0.045
GAGGGTTGTT | 0.997 ± 0.019
GAGGTAAGGG | 0.998 ± 0.029
GAGGTAATGT | 1.039 ± 0.0025
GAGGTACGCT | 1.01 ± 0.021
GAGGTACTTG | 0.975 ± 0.039
GAGGTAGATA | 1.03 ± 0.046
GAGGTCAGGT | 1.01 ± 0.021
GAGGTCGGCA | 1.02 ± 0.011
GAGGTGAGAG | 1.02 ± 0.058
GAGGTGAGGG | 1 ± 0.057
GAGGTGCAGG | 0.9932 ± 0.008
GAGGTGCGGG | 0.99 ± 0.023
GAGGTGCGGT | 0.975 ± 0.049
GAGGTGGGGA | 0.9826 ± 0.0055

Sequence | switch fluorescence ratio
GAGGTGGTGC | 0.966 ± 0.072
GAGGTGGTGG | 0.998 ± 0.036
GAGGTTATCA | 1.01 ± 0.013
GAGGTTGACA | 1.03 ± 0.017
GAGGTTGGAG | 1 ± 0.00098
GAGGTTGGCA | 0.994 ± 0.01
GAGGTTTAGG | 0.986 ± 0.042
GAGGTTTGCG | 0.965 ± 0.028
GAGGTTTTTA | 0.986 ± 0.027
GAGGTTTTTG | 0.994 ± 0.032
GAGTAAAAAG | 0.99 ± 0.014
GAGTAAATTG | 0.987 ± 0.019
GAGTAACGGT | 1.03 ± 0.027
GAGTAACTGT | 0.966 ± 0.016
GAGTAAGAGT | 1.0175 ± 0.00091
GAGTAATTGT | 0.9975 ± 0.0042
GAGTACGAGT | 1.0098 ± 0.001
GAGTACTTTG | 0.9847 ± 0.0015
GAGTAGAGTG | 0.957 ± 0.026
GAGTAGCGGT | 1.01 ± 0.026
GAGTAGGAGG | 0.974 ± 0.051
GAGTAGGGGA | 0.97 ± 0.055

Sequence | switch fluorescence ratio
GAGTATAAGC | 0.9844 ± 0.0069
GAGTATGAAG | 1.01 ± 0.031
GAGTATGCCC | 1.02 ± 0.039
GAGTATTATA | 1 ± 0.025
GAGTCCAGGG | 1.21 ± 0.27
GAGTCGCCTG | 0.991 ± 0.037
GAGTGAAATG | 1.02 ± 0.023
GAGTGACGGA | 1 ± 0.054
GAGTGCGGCT | 1.07 ± 0.16
GAGTGCGGGC | 1.07 ± 0.068
GAGTGGAGAC | 0.977 ± 0.053
GAGTGGAGGC | 1.03 ± 0.05
GAGTGGATAG | 0.996 ± 0.018
GAGTGGGGAG | 0.968 ± 0.045
GAGTGGGGGC | 1.01 ± 0.054
GAGTGGGGGT | 0.977 ± 0.032
GAGTGTCAGC | 1 ± 0.035
GAGTGTGTTC | 1.01 ± 0.024
GAGTTAAACA | 0.994 ± 0.021
GAGTTAACGG | 1 ± 0.0026
GAGTTACGGC | 1.22 ± 0.26
GAGTTACTTT | 1.02 ± 0.023

Sequence | switch fluorescence ratio
GAGTTATGGG | 0.9963 ± 0.0048
GAGTTGACGG | 1.03 ± 0.013
GAGTTGGAAG | 1.009 ± 0.0071
GAGTTGGGTC | 1.02 ± 0.021
GAGTTGTCAA | 0.972 ± 0.033
GAGTTGTGAT | 1 ± 0.019
GAGTTGTGCG | 0.9969 ± 0.001
GAGTTTATGG | 0.984 ± 0.029
GAGTTTGACC | 0.965 ± 0.03
GAGTTTGCGT | 1.03 ± 0.015
GAGTTTGGAC | 0.985 ± 0.058
GAGTTTGTCC | 0.998 ± 0.012
GAGTTTTTGT | 1.01 ± 0.017
GATAAATTTT | 0.974 ± 0.023
GATAACATGT | 1.02 ± 0.029
GATAAGAGCG | 0.975 ± 0.029
GATAAGTATG | 0.975 ± 0.015
GATAATAATG | 1.02 ± 0.0061
GATAATGGGT | 0.976 ± 0.042
